Biological target: T1, decoration protein pb10 of bacteriophage T5, full length (bacteriophage T5, UniProt Q6QGD6 1-164)
T1 construct: Cloned in pET28b; also called native pb10; unmodified pb10; source: E. coli BL21 (DE3), purified (HisTrap FF, HiTrap SP, Superdex 75)
T1 sequence (looked up): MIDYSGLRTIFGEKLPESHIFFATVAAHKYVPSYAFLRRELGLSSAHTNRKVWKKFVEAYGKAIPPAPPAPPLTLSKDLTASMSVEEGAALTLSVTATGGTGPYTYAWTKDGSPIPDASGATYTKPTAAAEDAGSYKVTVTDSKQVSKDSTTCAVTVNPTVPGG
Test: SPR; T5 CLPs captured on a CM5 chip through covalently coupled rabbit polyclonal anti-capsid antibodies (about 900 RU); pb10 or chimeras injected at 0.25-4 nM for 200 s at 50 µL/min; 25 °C; PBS with 0.05% Tween 20 and 1 mg/mL BSA; simple Langmuir model
Conditions: both partners purified

B1: bacteriophage T5 capsid-like particles (T5 CLPs) (complex)
chain: AVNQSSSVEVSSESYETIFSQRIIRDLQKELVVGALFEELPMSSKILTMLVEPDAGKATWVAASTYGTDTTTGEEVKGALKEIHFSTYKLAAKSFITDETEEDAIFSLLPLLRKRLIEAHAVSIEEAFMTGDGSGKPKGLLTLASEDSAKVVTEAKADGSVLVTAKTISKLRRKLGRHGLKLSKLVLIVSMDAYYDLLEDEEWQDVAQVGNDSVKLQGQVGRIYGLPVVVSEYFPAKANSAEFAVIVYKDNFVMPRQRAVTVERERQAGKQRDAYYVTQRVNLQRYFANGVVSGTYAAS
modifications: DNA-free expanded capsid lacking pb10 (T5 dec deletion, stAmN5). Mature pb8 after removal of the scaffolding domain; limits from the UniProt chain feature, matching the 299 aa entity of PDB 6OMC/6OMA.
Kd: 1.5 to 2.3 pM
